{"source": "the supplement of paper PMC7877785", "assay": "self-splicing fitness, log relative to wild type (ln ratio); higher = more splicing; Tetrahymena group I intron in knt gene, E. coli kanamycin selection, DiMSum; sequences stand for … in CUCUCU…GGAGGGAAAAGUUAUCAGGCAUGCACCUGGUAGCUAGUCUUUAAACCAAUAGAUUGCAUCGGUUUAAAAGGCAAGACCGUCAAAUUGCGGGAAAGGGGUCAACAGCCGUUCAGUACCAAGUCUCAGGGGAAACUUUGAGAUGGCCUUGCAAAGGGUAUGGUAAUAAGCUGACGGACAUGGUCCUAACCACGCAGCCAAGUCCUAAGUCAACAGAUCUUCUGUUGAUAUGGAUGCAGUUCACAGACUAAAUGUCGGUCGGGGAAGAUGUAUUCUUCUCAUAAGAUAUAGUCGGACCUCUCCUUAAUGGGAGCUAGCGGAUGAAGUGAUGCAACACUGGAGCCGCUGGGAACUAAUUUGUAUGCGAAAGUAUAUUGAUUAGUUUUGGAGUACUCGUGGUCG", "procedure,_shortened": "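Colonies from six replicate transformations of E. coli BL21(DE3) were pooled and amplicon-sequenced on an Illumina HiSeq 2500. The library placed an intron with all eight P1ex-region nucleotides randomised inside the knt kanamycin-resistance gene on pET-22b(+), and cells grew overnight at 37°C or 30°C on LB agar with or without 25 μg/mL kanamycin (plus 100 μg/mL carbenicillin, 50 μM IPTG, 0.2% rhamnose). Fitness is the DiMSum error-weighted combination of wild-type-normalised replicate fold changes, kanamycin versus none.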", "note": "± gives the uncertainty stated by the source."}
{"sequence": "UAUAAGCAAUAUUACGAGCA", "values": [{"measurement": "self-splicing fitness (ln)", "setting": "30 °C", "value": "-0.842 ± 0.23"}, {"measurement": "self-splicing fitness (ln)", "setting": "37 °C", "value": "-0.234 ± 0.18"}]}
{"sequence": "GAAUAGCAAUAUUACGAUAC", "values": [{"measurement": "self-splicing fitness (ln)", "setting": "30 °C", "value": "-1.47 ± 0.15"}, {"measurement": "self-splicing fitness (ln)", "setting": "37 °C", "value": "-0.123 ± 0.17"}]}
{"sequence": "GACGAGCAAUAUUACGGUGG", "values": [{"measurement": "self-splicing fitness (ln)", "setting": "30 °C", "value": "-3.01 ± 0.16"}, {"measurement": "self-splicing fitness (ln)", "setting": "37 °C", "value": "-2.77 ± 0.19"}]}
{"sequence": "UCUGAGCAAUAUUACGGCUU", "values": [{"measurement": "self-splicing fitness (ln)", "setting": "30 °C", "value": "-2.02 ± 0.32"}, {"measurement": "self-splicing fitness (ln)", "setting": "37 °C", "value": "-2.34 ± 0.32"}]}
{"sequence": "ACACAGCAAUAUUACGCACA", "values": [{"measurement": "self-splicing fitness (ln)", "setting": "30 °C", "value": "-1.16 ± 0.1"}, {"measurement": "self-splicing fitness (ln)", "setting": "37 °C", "value": "-0.111 ± 0.1"}]}
{"sequence": "UAAAAGCAAUAUUACGGUGC", "values": [{"measurement": "self-splicing fitness (ln)", "setting": "30 °C", "value": "-3.65 ± 0.42"}, {"measurement": "self-splicing fitness (ln)", "setting": "37 °C", "value": "-2.92 ± 0.35"}]}
{"sequence": "CAUCAGCAAUAUUACGAGCC", "values": [{"measurement": "self-splicing fitness (ln)", "setting": "30 °C", "value": "-3.22 ± 0.31"}, {"measurement": "self-splicing fitness (ln)", "setting": "37 °C", "value": "-2.33 ± 0.41"}]}
{"sequence": "UUUGAGCAAUAUUACGAGGG", "values": [{"measurement": "self-splicing fitness (ln)", "setting": "30 °C", "value": "-3.32 ± 0.32"}, {"measurement": "self-splicing fitness (ln)", "setting": "37 °C", "value": "-0.691 ± 0.24"}]}
{"sequence": "UAGCAGCAAUAUUACGACGC", "values": [{"measurement": "self-splicing fitness (ln)", "setting": "30 °C", "value": "-3.94 ± 0.31"}, {"measurement": "self-splicing fitness (ln)", "setting": "37 °C", "value": "-1.82 ± 0.19"}]}
{"sequence": "CAUGAGCAAUAUUACGGUAA", "values": [{"measurement": "self-splicing fitness (ln)", "setting": "37 °C", "value": "-2.65 ± 0.34"}]}
{"sequence": "GCUGAGCAAUAUUACGCAAG", "values": [{"measurement": "self-splicing fitness (ln)", "setting": "30 °C", "value": "-3.22 ± 0.3"}, {"measurement": "self-splicing fitness (ln)", "setting": "37 °C", "value": "-2.73 ± 0.44"}]}
{"sequence": "CUCCAGCAAUAUUACGGUGG", "values": [{"measurement": "self-splicing fitness (ln)", "setting": "30 °C", "value": "-3.79 ± 0.19"}, {"measurement": "self-splicing fitness (ln)", "setting": "37 °C", "value": "-2.42 ± 0.18"}]}
{"sequence": "AACUAGCAAUAUUACGAAUG", "values": [{"measurement": "self-splicing fitness (ln)", "setting": "30 °C", "value": "-2.36 ± 0.11"}, {"measurement": "self-splicing fitness (ln)", "setting": "37 °C", "value": "-1.69 ± 0.12"}]}
{"sequence": "GGACAGCAAUAUUACGAUCU", "values": [{"measurement": "self-splicing fitness (ln)", "setting": "30 °C", "value": "-2.62 ± 0.18"}, {"measurement": "self-splicing fitness (ln)", "setting": "37 °C", "value": "-1.8 ± 0.2"}]}
{"sequence": "GAGGAGCAAUAUUACGCGCG", "values": [{"measurement": "self-splicing fitness (ln)", "setting": "30 °C", "value": "-2.81 ± 0.28"}, {"measurement": "self-splicing fitness (ln)", "setting": "37 °C", "value": "-0.781 ± 0.39"}]}
{"sequence": "ACGGAGCAAUAUUACGUGAA", "values": [{"measurement": "self-splicing fitness (ln)", "setting": "30 °C", "value": "-2.95 ± 0.15"}, {"measurement": "self-splicing fitness (ln)", "setting": "37 °C", "value": "-2.35 ± 0.19"}]}
{"sequence": "CCGUAGCAAUAUUACGAUAC", "values": [{"measurement": "self-splicing fitness (ln)", "setting": "30 °C", "value": "-3.22 ± 0.24"}]}
{"sequence": "ACUCAGCAAUAUUACGGGAU", "values": [{"measurement": "self-splicing fitness (ln)", "setting": "30 °C", "value": "-1.32 ± 0.056"}, {"measurement": "self-splicing fitness (ln)", "setting": "37 °C", "value": "-0.522 ± 0.076"}]}
{"sequence": "GUUUAGCAAUAUUACGGAAC", "values": [{"measurement": "self-splicing fitness (ln)", "setting": "30 °C", "value": "-2.74 ± 0.39"}]}
{"sequence": "ACAGAGCAAUAUUACGGUGC", "values": [{"measurement": "self-splicing fitness (ln)", "setting": "30 °C", "value": "-3.86 ± 0.44"}, {"measurement": "self-splicing fitness (ln)", "setting": "37 °C", "value": "-2.09 ± 0.31"}]}
{"sequence": "UUGAAGCAAUAUUACGGGCC", "values": [{"measurement": "self-splicing fitness (ln)", "setting": "37 °C", "value": "-2.14 ± 0.42"}]}
{"sequence": "CUAGAGCAAUAUUACGUUGG", "values": [{"measurement": "self-splicing fitness (ln)", "setting": "30 °C", "value": "-1.71 ± 0.11"}, {"measurement": "self-splicing fitness (ln)", "setting": "37 °C", "value": "-0.638 ± 0.13"}]}
{"sequence": "GGGCAGCAAUAUUACGAAUG", "values": [{"measurement": "self-splicing fitness (ln)", "setting": "30 °C", "value": "-2.93 ± 0.17"}, {"measurement": "self-splicing fitness (ln)", "setting": "37 °C", "value": "-2.12 ± 0.23"}]}
{"sequence": "GGCUAGCAAUAUUACGGGAU", "values": [{"measurement": "self-splicing fitness (ln)", "setting": "30 °C", "value": "-1.89 ± 0.089"}, {"measurement": "self-splicing fitness (ln)", "setting": "37 °C", "value": "-1.03 ± 0.11"}]}
{"sequence": "CCCCAGCAAUAUUACGCCCG", "values": [{"measurement": "self-splicing fitness (ln)", "setting": "30 °C", "value": "-1.79 ± 0.17"}, {"measurement": "self-splicing fitness (ln)", "setting": "37 °C", "value": "-2.57 ± 0.28"}]}
{"sequence": "GUACAGCAAUAUUACGUCUC", "values": [{"measurement": "self-splicing fitness (ln)", "setting": "30 °C", "value": "-0.298 ± 0.11"}, {"measurement": "self-splicing fitness (ln)", "setting": "37 °C", "value": "-0.182 ± 0.12"}]}
{"sequence": "UCGCAGCAAUAUUACGUUCU", "values": [{"measurement": "self-splicing fitness (ln)", "setting": "30 °C", "value": "-3.58 ± 0.18"}, {"measurement": "self-splicing fitness (ln)", "setting": "37 °C", "value": "-2.31 ± 0.11"}]}
{"sequence": "UAUCAGCAAUAUUACGGUGA", "values": [{"measurement": "self-splicing fitness (ln)", "setting": "30 °C", "value": "-0.121 ± 0.054"}, {"measurement": "self-splicing fitness (ln)", "setting": "37 °C", "value": "-0.19 ± 0.065"}]}
{"sequence": "CCGUAGCAAUAUUACGAAUU", "values": [{"measurement": "self-splicing fitness (ln)", "setting": "30 °C", "value": "-3.75 ± 0.25"}, {"measurement": "self-splicing fitness (ln)", "setting": "37 °C", "value": "-2.85 ± 0.34"}]}
{"sequence": "AUUUAGCAAUAUUACGUACG", "values": [{"measurement": "self-splicing fitness (ln)", "setting": "30 °C", "value": "-1.48 ± 0.19"}, {"measurement": "self-splicing fitness (ln)", "setting": "37 °C", "value": "-1.66 ± 0.34"}]}
{"sequence": "GCGGAGCAAUAUUACGCGUU", "values": [{"measurement": "self-splicing fitness (ln)", "setting": "30 °C", "value": "-2.26 ± 0.24"}, {"measurement": "self-splicing fitness (ln)", "setting": "37 °C", "value": "-1.23 ± 0.22"}]}
{"sequence": "UGUUAGCAAUAUUACGGGGG", "values": [{"measurement": "self-splicing fitness (ln)", "setting": "30 °C", "value": "-3.91 ± 0.35"}, {"measurement": "self-splicing fitness (ln)", "setting": "37 °C", "value": "-1.94 ± 0.36"}]}
{"sequence": "ACGCAGCAAUAUUACGUACC", "values": [{"measurement": "self-splicing fitness (ln)", "setting": "30 °C", "value": "-1.46 ± 0.24"}, {"measurement": "self-splicing fitness (ln)", "setting": "37 °C", "value": "-0.295 ± 0.26"}]}
{"sequence": "CGAGAGCAAUAUUACGUCUC", "values": [{"measurement": "self-splicing fitness (ln)", "setting": "30 °C", "value": "-3.03 ± 0.22"}, {"measurement": "self-splicing fitness (ln)", "setting": "37 °C", "value": "-3.17 ± 0.35"}]}
{"sequence": "GUUUAGCAAUAUUACGGCGU", "values": [{"measurement": "self-splicing fitness (ln)", "setting": "30 °C", "value": "-0.507 ± 0.094"}, {"measurement": "self-splicing fitness (ln)", "setting": "37 °C", "value": "-0.0237 ± 0.12"}]}
{"sequence": "UACAAGCAAUAUUACGUAGC", "values": [{"measurement": "self-splicing fitness (ln)", "setting": "30 °C", "value": "-3.5 ± 0.18"}, {"measurement": "self-splicing fitness (ln)", "setting": "37 °C", "value": "-2.09 ± 0.2"}]}
{"sequence": "ACUUAGCAAUAUUACGAGGC", "values": [{"measurement": "self-splicing fitness (ln)", "setting": "30 °C", "value": "-3.25 ± 0.5"}]}
{"sequence": "GGUGAGCAAUAUUACGUUUA", "values": [{"measurement": "self-splicing fitness (ln)", "setting": "30 °C", "value": "-3.01 ± 0.28"}, {"measurement": "self-splicing fitness (ln)", "setting": "37 °C", "value": "-1.44 ± 0.18"}]}
{"sequence": "AAUCAGCAAUAUUACGCCCA", "values": [{"measurement": "self-splicing fitness (ln)", "setting": "30 °C", "value": "-0.426 ± 0.16"}, {"measurement": "self-splicing fitness (ln)", "setting": "37 °C", "value": "0.216 ± 0.21"}]}
{"sequence": "CGUCAGCAAUAUUACGUUCA", "values": [{"measurement": "self-splicing fitness (ln)", "setting": "30 °C", "value": "-1.26 ± 0.082"}, {"measurement": "self-splicing fitness (ln)", "setting": "37 °C", "value": "-0.74 ± 0.087"}]}
